For one substance, stoichiometry N results are on record in article PMC6718452.

In general, stoichiometry N refers to a count of units in the complex or per binding partner.

This assay addresses FITC-labeled amyloid-β (Aβ), aggregated into amyloid-derived diffusible ligands (ADDLs). As to the kind of experiment: SEC; FITC-labeled Aβ aggregated by the Freir protocol (ADDLs); solvent PBS. In general terms: Size exclusion chromatography separates by hydrodynamic size, large species first.

Regarding “FITC-labeled amyloid-β (Aβ), aggregated into amyloid-derived diffusible ligands (ADDLs) (peptide)”, the stoichiometry N is 2.
